Tests used:
[1] = system: SH-SY5Y cells; assay: Flow cytometry quantification of cellular uptake and clearance; assay type: cell-based, human; conditions: 500 nM, up to 3 days, 500 nM to 2.5 µM for 5 h
Experimental: SH-SY5Y cells were grown in a 1:1 mixture of minimal essential medium (MEM) and nutrient mixture F-12 Ham supplemented with 10% heat-inactivated fetal bovine serum, 1% MEM non-essential amino acids and 2 mM L-glutamine. The cells were detached (trypsin-EDTA 0.05%, 5 minutes) and passaged twice a week. Cells were plated 1day prior to experiments in either flat-bottomed 96 well plates (Nunc; 60,000 cells/well for experiments <1day and 20,000 cells/well for experiments ≥1day) for flow cytometry or in glass-bottomed culture dishes (MatTek; 25,000 cells/14 mm dish) for microscopy.
Flow cytometry was used to quantify cellular uptake. […] All samples were kept on ice until they were analysed on a Guava EasyCyte 8HT (Millipore, Darmstadt, Germany) that automatically retrieves samples from a 96-well plate. […] The cell counting gate was determined using propidium iodide (0.5 µM, not washed away prior to analysis) and calcein-AM (10 nM, 15 min staining) to distinguish live and dead cells, and for each sample 5,000 cells from within the live gate were counted and analysed. HF488, AlexaFluor488, EGFP and calcein-AM were excited by a 488 nm laser and their fluorescence was detected through a 525/30 nm filter. Propidium iodide and mRFP were excited by the 488 nm laser but detected through a 692/46 nm filter. HF647 and AlexaFluor647 were excited with a 635 nm laser and detected through a 661/19 nm filter. […]

[2] = SDS-PAGE of peptide solutions, band quantification (monomer fraction); assay type: physicochemical; conditions: 1 µM HF488-labelled peptide in cell culture medium after HFIP pre-treatment; NuPAGE 4–12% Bis-Tris gel, fluorescence scan, ImageJ
Experimental: The lyophilized Aβ peptide powders were dissolved in hexafluoro-2-propanol to disrupt any aggregates[26] and monomerize the peptide. The solutions were vortexed briefly and aliquoted at 4 °C. The solvent in each aliquot was evaporated at 37 °C for 60 min using a RVC 2–18 CD Rotational Vacuum concentrator (Martin Christ, Germany). The remaining peptide films were snap frozen in liquid nitrogen and kept at −80 °C until further use. For concentration determinations the peptide film was dissolved in 1% ammonium hydroxide (v/v) and the absorption of the dye label was measured on a Cary 4000 UV-Vis Spectrophotometer (Agilent Technologies, Santa Clara, CA, US). Extinction coefficients of 70,000 M^−1cm^−1 at 504 nm and 250 000 M^−1cm^−1 at 649 nm was used for the HF488 and HF647 dye labels, respectively, according to the information provided by the manufacturer. Prior to each experiment one peptide film was dissolved in a small volume 1% ammonium hydroxide (v/v) and diluted with cell culture medium supplemented with 30 mM HEPES. […] The HF488 dye was excited by a 488 nm laser and emission detected through a 520/40 nm filter. After background correction, the gel bands corresponding to monomer, dimer and trimer species were quantified in ImageJ (NIH, Bethesda, Maryland, US) by integrated intensity of the respective bands.

[3] = system: SH-SY5Y cells transfected with Arf6 WT/Q67L; assay: Uptake in cells transfected with Arf6 WT or Q67L (confocal imaging); assay type: cell-based, human; conditions: SH-SY5Y 24 h post transfection, 1 µM HF488-labelled Aβ 24 h, confocal microscopy
Experimental: The samples were washed 1x in serum free medium prior to incubation with Aβ peptides and/or other reagents also in serum free medium that was supplemented with 30 mM HEPES and 2% B-27. For experiments including Trf B-27 was omitted as it, according to the media formulation provided by the manufacturer, contains unlabelled Trf that interferes with the experiment. Prior to imaging, cells were stained with 50 nM LysoTracker Deep Red for 30 min and 5 µg/ml Hoechst 33342 was added during the last 10 min of incubation. The cells were thereafter washed 1x, treated with 5 µg/ml FM 4–64 and imaged immediately (for labelling of cellular membrane) or after 10 min incubation at 37 °C (for labelling of cellular membrane and endocytic vesicles). […] The scanner unit was mounted onto a Leica DMIRB microscope equipped with an oil immersion 63x NA 1.47 Leica HCX PL APO objective for imaging and co-localisation analysis, or a 40x NA 0.55 Leica N PLAN L CORR air objective for quantification of peptide uptake. The sample was excited and detected sequentially with appropriate excitation laser lines and emission filters. […]

## Aβ(1–42): Synthetic 42 residue amyloid-β peptide conjugated to HiLyte Fluor HF488 (or HF647) at the N-terminus, from Anaspec
[1]
  saturation of intracellular concentration: neither Aβ(1–40) nor Aβ(1–42) appears to saturate
[2]
  monomer fraction by SDS-PAGE band intensities: 86%
[3]
  Aβ uptake in Arf6 Q67L versus wild-type Arf6 overexpressing cells: no difference

## Aβ(1–40): Synthetic 40 residue amyloid-β peptide conjugated to HiLyte Fluor HF488 (or HF647) at the N-terminus, from Anaspec
[1]
  saturation of intracellular concentration: neither Aβ(1–40) nor Aβ(1–42) appears to saturate
[2]
  monomer fraction by SDS-PAGE band intensities: 84%
[3]
  Aβ uptake in Arf6 Q67L versus wild-type Arf6 overexpressing cells: no difference

Source: PMC5435687 (Scientific Reports, 2017)
